This is an account of results in PMC5058624.

The target in this assay is recombinant LukG monomer (TCH1516) (Staphylococcus aureus strain TCH1516 (USA300 CA-MRSA)). Kind of assay: BLI. On the technique in general: In BLI a coated tip is dipped into the sample, and binding shifts an interference pattern.
Chain of recombinant LukG monomer (TCH1516) (Staphylococcus aureus strain TCH1516 (USA300 CA-MRSA)) (P21224 30-338 limits assumed): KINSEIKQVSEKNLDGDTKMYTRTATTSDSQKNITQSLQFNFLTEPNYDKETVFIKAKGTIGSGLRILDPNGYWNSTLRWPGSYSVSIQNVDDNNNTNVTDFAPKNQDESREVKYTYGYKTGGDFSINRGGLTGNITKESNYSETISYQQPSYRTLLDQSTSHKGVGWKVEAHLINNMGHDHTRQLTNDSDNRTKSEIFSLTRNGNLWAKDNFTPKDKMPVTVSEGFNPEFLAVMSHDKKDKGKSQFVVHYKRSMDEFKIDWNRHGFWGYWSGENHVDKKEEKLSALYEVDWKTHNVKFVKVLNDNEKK

As to “recombinant LukH monomer (TCH1516) (natural protein)”, the stoichiometry N (molar ratio of the 2 monomers) worked out at 1.
